Assay results as given in patent publication JP2006523083A (dated 2006).

T1: 可溶性EPO受容体(sEPOR)(R&D Systems Cat.#307-ER/LF) (human, UniProt P19235 25-250)
T1 construct: extracellular domain; The ELISA paragraph names only 'soluble EPO receptor' with the catalogue number; also called sEPOR; 固相化エリスロポエチン受容体
T1 sequence (looked up): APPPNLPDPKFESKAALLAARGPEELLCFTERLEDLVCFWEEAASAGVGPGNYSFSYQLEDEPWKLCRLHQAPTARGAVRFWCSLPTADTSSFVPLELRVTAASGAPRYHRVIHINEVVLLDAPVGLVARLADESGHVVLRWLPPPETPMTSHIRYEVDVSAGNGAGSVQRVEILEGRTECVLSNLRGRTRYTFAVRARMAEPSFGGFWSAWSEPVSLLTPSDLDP

T2: 全長組換えヒトEPO受容体(CHO細胞に発現) (human, UniProt P19235 25-508)
T2 construct: whole, on cells; also called 組換えEPO受容体を発現するCHO細胞; エリスロポエチン受容体
T2 sequence (looked up): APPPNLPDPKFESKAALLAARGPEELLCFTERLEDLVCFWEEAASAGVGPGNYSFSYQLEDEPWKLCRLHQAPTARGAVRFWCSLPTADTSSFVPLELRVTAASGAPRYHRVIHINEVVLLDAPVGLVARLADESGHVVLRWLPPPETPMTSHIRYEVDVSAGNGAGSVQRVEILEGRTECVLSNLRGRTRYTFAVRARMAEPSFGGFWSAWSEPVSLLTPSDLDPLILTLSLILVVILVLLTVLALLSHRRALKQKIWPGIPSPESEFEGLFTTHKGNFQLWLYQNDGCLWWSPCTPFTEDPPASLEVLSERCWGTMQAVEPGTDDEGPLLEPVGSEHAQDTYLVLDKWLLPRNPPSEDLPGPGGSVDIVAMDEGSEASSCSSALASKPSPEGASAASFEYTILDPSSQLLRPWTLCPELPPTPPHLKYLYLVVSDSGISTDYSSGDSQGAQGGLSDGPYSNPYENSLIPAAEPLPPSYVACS

T3: ペプチドSE−3 (human)
T3 construct: also called SE-3; SE-3ペプチド
T3 peptide: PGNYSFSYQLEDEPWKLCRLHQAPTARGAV


Assays:
[1] = target: ビオチン化EpoR(Abbott CHO細胞由来 ref.#RB69084:4) (UniProt P19235); test: immunofluorescence microscopy on EpoR-coated sheep red cells, MAB307 plus Alexa488 anti-mouse IgG Fc
[2] = target: T1, 可溶性EPO受容体(sEPOR)(R&D Systems …; test: BIAcore (antibody immobilised, soluble human EPO receptor injected), as paragraph 65 attributes it; values not given
全長組換えヒトEPO受容体(CHO細胞に発現) = target: T2, 全長組換えヒトEPO受容体(CHO細胞に発現); test: competition with 125I-EPO on CHO cells expressing full-length human EPO receptor
ペプチドSE−3 = target: T3, ペプチドSE−3; test: ELISA on plate-coated SE-3 peptide (5 μg/ml), anti-human IgG (Fc)-HRP
[3] = target: ヒトエリスロポエチン受容体(UT-7/Epo細胞・F36E細胞上) (human), P19235; test: cell-based or functional assay

immunofluorescence score (0-4 scale) [1] | binding result [2] | binding result (全長組換えヒトEPO受容体(CHO細胞に発現)) | binding result (ペプチドSE−3) | F36E細胞の増殖:EPO対照との最大応答の差(モル当量基準) [3] | Molecule
4 of 4 |  |  |  |  | マウス抗EpoR抗体(R&D Systems Cat.# MAB307) (antibody)
 | binds | binds |  |  | Ab198 (antibody, V domains shown, These were not used; also called AB-ABT2-XG2-198; ABT2-XG2-198) VH: QVQLVESGGGVVQPGRSLRLSCVASGFTFSSYGMHWVRQAPGKGLEWVAVISYDGSNKYYADSVKGRFTISRDNSKNTLYLQMNSLRVEDTAVYYCARDHGGRYVYDYGMDVWGQGTTVTVSS VL: DIQMTQSPSSVSASIGDRVSITCRASQGISSWLAWYQQKPGKAPTLLIYAASTLQRGVPSRFSGSGSGTDFTLTISSLQPEDFATYFCQQANSFPFTFGPGTKVDIK
 | binds | binds | no binding (tested: 5 μg/ml Ab12) | 10 倍 | Ab12 (antibody, V domains shown, Human antibody (XenoMouse XG2); also called AB-ABT2-XG2-012; ABT2-XG2-012) VH: QVQLQESGPGLVKPSETLSLTCTVSGASISSYYWSWIRQPPGKGLEWIGYIYYSGSTNYNPSLKSRVTISVDTSKNQFSLKLRSVTAADTAVYYCARERLGIGDYWGQGTLVTVSS VL: DIQLTQSPSSLSASVGDRVTITCRASQGIRNDLGWYQQKPGKAPKRLIYAASSLQSGVPSRFSGSGSGTEFTLTISSLQPEDFATYYCLQHNTYPPTFGQGTKVEIK
